The results in this text go back to article PMC7513463 (Nature, 2020).

First the molecules themselves.
B5: PA0619 (Tri2) triplex protein of pyocin R2 (natural protein, Pseudomonas aeruginosa PAO1, UniProt G3XD92 1-177, looked up)
chain: MSSRLLPPNRSSLERSLGDVLPAELPVPLRELHDPARCEAALLPYLAWTRSVDRWDPDWSDEAKRNAVATSFVLHQRKGTLTALRQVVEPIGALSEVTEWWQRSPTGVPGTFEITVDVSDRGIDEGTVLELERLLDDVRPVSRHLTRLDLRITPVIRSRHGLAVTDGDTLEIFPWKQ
B6: PA0618 (Tri1) triplex protein of pyocin R2 (natural protein, Pseudomonas aeruginosa PAO1, UniProt G3XCX5 1-295, looked up)
chain: MIIDLSQLPEPEVIENLDFETIYQELLGDFREAMAGEWTAEVESDPVLKLLQLAAYRELLLRARINDAARAVMLAYASGADLDQIGAGFNVQRLLIRPAQPEAVPPVEAQYESDKSLRNRIQLAFEQLSVAGPRNAYIAHALGADGRVADASATSPAPCEVLISVLGVEGNGQAPEAVLQAVRLALNAEDVRPVADRVTVRSAGIVPYQVKAQLYLFPGPEAELIRAAAEASLRDYISAQRRLGRDIRRSALFATLHVEGVQRVELQEPAADVVLDETQAAYCTGYAITLGGVDE
B9: PA0622 sheath protein of pyocin R2 (natural protein, Pseudomonas aeruginosa PAO1, UniProt G3XD39 1-386, looked up)
chain: MSFFHGVTVTNVDIGARTIALPASSVIGLCDVFTPGAQASAKPNVPVLLTSKKDAAAAFGIGSSIYLACEAIYNRAQAVIVAVGVETAETPEAQASAVIGGISAAGERTGLQALLDGKSRFNAQPRLLVAPGHSAQQAVATAMDGLAEKLRAIAILDGPNSTDEAAVAYAKNFGSKRLFMVDPGVQVWDSATNAARNAPASAYAAGLFAWTDAEYGFWSSPSNKEIKGVTGTSRPVEFLDGDETCRANLLNNANIATIIRDDGYRLWGNRTLSSDSKWAFVTRVRTMDLVMDAILAGHKWAVDRGITKTYVKDVTEGLRAFMRDLKNQGAVINFEVYADPDLNSASQLAQGKVYWNIRFTDVPPAENPNFRVEVTDQWLTEVLDVA
B10: PA0628 hub protein of pyocin R2 (natural protein, Pseudomonas aeruginosa PAO1, UniProt G3XCU8 1-329, looked up)
chain: MQPSFRIVADGTDVTQRLNDRLLKLTLLDKPGMESDSLTLRIDDRDGQVALPRRGAVLEVHLGYAGEPLMRMGRFTVDTLQWAGPPDCLTVTAKAGDMRGSGKTIRSGGWEGTTLAQVCRDVGARNGWRVECPLQVAIARVDQVNESDYHFVTRLARQYDCTAKLAEGMLMVLPRQSGQSATGRRIEPLVLGRADVGSFDVTFDDRSLMRTVKTRYQLPGSGEVKSVELKNPKAPATAMGEHVDRHLYTSRGEAEQAAKARLASFSRSSASVRLELPGRGDLFAERSLLLQGFKAGIDGEFLIDSVEHTYSSSGWTTVVQCNGGRGGKG

Data set [1] addresses B9. Briefly: cryo-EM structure.
In data set [2] the target is B10. Briefly: cryo-EM structure.
Data set [3] concerns the molecule itself. As to the kind of experiment: cryo-EM structure.
Data set [4] concerns the target B9. Briefly: cryo-EM structure. The source holds these as a separate data set.
Data set [5] has as its target B6. As to the kind of experiment: cryo-EM structure.
The target of data set [6] is B5. As to the kind of experiment: cryo-EM structure.
The data set “crystal structure” deals with the molecule itself. Briefly: crystal structure.
Data set [7] concerns the molecule itself. Briefly: cryo-EM structure. This is another data set of the same source.

Where two headings read alike, the source gives them in different places.

B1: PA0617 sheath initiator protein of pyocin R2 (natural protein, Pseudomonas aeruginosa PAO1, UniProt G3XD42 1-108, looked up)
chain: MIGMDRRSGLPLSGLAHLKQSVEDILTTPLGSRRMRPEYGSKLRRMVDMPVSEGWKSAVQAEVARSLGRWEPRIGLSAVRVVAVVDGRVDLLLSGVFEGENINMEVSA
Take B1: in data set [1], the binding result is “binds”.

B2: PA0626 ripcord protein of pyocin R2 (natural protein, Pseudomonas aeruginosa PAO1, UniProt G3XD65 1-290, looked up)
chain: MAYLEQLQAGLRYLGRAGESGRKSLDKVVAPVNGAISEIRGAAAELENLPGVSPEMAARLQRAMRGIGQAQGKVNRVVSTYDRASRALLGIDERLDALKVQVNSAAQAVGKVAGDISPTLAGVLPSWLLAPSATPPSEAAASLPHLLVLQPLTANAQPFYFNLNTAAFDALQRNSAYNWSGQVRLGRRPALQSVGMGEESILLKGAVFPLRRQVGNQEKVVGLEQLEALRRLAERREPLILSSGYGEVQMGLWCLVRISENQSALLGNGAPRKQTFDLEFKRYGDDLPNR
Broadly, the stoichiometry N is a count of units in the complex or per binding partner. Consider B2, for which, in data set [2], the binding result is given as “binds”. Besides, the “stoichiometry N” value in “cryo-EM structure [3]” turned out to be 6.

B3: PA0615 collar protein of pyocin R2 (natural protein, Pseudomonas aeruginosa PAO1, UniProt G3XD82 1-171, looked up)
chain: MPEQAVTLEALYAAIEQVLRERLPEAQLIGFWPGVPENTPAVSLEIAELLPERDPGTGESALLCRLQARIMVPPGADRQAVSIACGIVRTLREQTWNLSLQPARFVRSAVDGSREELKSLRVWLVEWTQSLRLGDPEWAWEDQPPGSLMLGFDPQTGPGHEPDYFAPEALA
In the case of B3, in data set [4], the binding result is given as “binds”. In addition, the “stoichiometry N” value in the data set “cryo-EM structure [3]” is 6.

B4: PA0623 tube protein of pyocin R2 (natural protein, Pseudomonas aeruginosa PAO1, UniProt Q9I5S9 1-167, looked up)
chain: MIPQTLTNTNLFIDGVSFAGDVPSLTLPKLAVKTEQYRAGGMDAPVSIDMGLEAMEAKFSTNGARREALNFFGLADQSAFNGVFRGSFKGQKGASVPVVATLRGLLKEVDPGDWKAGEKAEFKYAVAVSYYKLEVDGREVYEIDPVNGVRAINGVDQLAGMRNDLGL
B4: in the data set “cryo-EM structure [3]”, the “stoichiometry N” value amounted to 6.
Consider B5, for which the binding result in data set [5] is given as “binds”.
As to B6, the results for the “stoichiometry N” value (in data set [6]; in “cryo-EM structure [3]”) were 2 PA0618 per PA0619 and 2, respectively.

B7: PA0616 central spike protein of pyocin R2 (in the native particle) (natural protein)
chain: MSYVSAEHDRMLAAMILPCVVVAVDLAAARVRVRSGDWTSGWLRWHSLAAGKVRHWRAPSIGEQGVLLSPSGGVSMGTFIPGLYGDAGTAPDNSASSETWRFDDGASLSYDWAAHRYRVELPSGTVEVRVGASEVRVSDGAVSLKAPKISLEGPVEIAGTLTVSGDILGGGSIIDTAGNSNHHTH
On to B7, for which, in the data set “cryo-EM structure [3]”, the “stoichiometry N” value was 3.

B8: PA0616 central spike protein, full length, recombinant (natural protein)
chain: MSYVSAEHDRMLAAMILPCVVVAVDLAAARVRVRSGDWTSGWLRWHSLAAGKVRHWRAPSIGEQGVLLSPSGGVSMGTFIPGLYGDAGTAPDNSASSETWRFDDGASLSYDWAAHRYRVELPSGTVEVRVGASEVRVSDGAVSLKAPKISLEGPVEIAGTLTVSGDILGGGSIIDTAGNSNHHTH
Take B8: the “stoichiometry N” value in the data set “crystal structure” turned out to be 3.
In the case of B9, the binding result in “cryo-EM structure [7]” is “binds”.
As for B10, the “stoichiometry N” value in the data set “cryo-EM structure [3]” amounted to 3.
